Article PMC4460036

Molecular target: Fibrillar-type I Horm collagen from equine tendon (equine)
Assay: not stated; apparent constants (KDapp) of recombinant soluble GPVI for collagen; method and conditions not told

| Kd | Substance |
| --- | --- |
| 5 nM | GPVI-Fc (extracellular domain of human GPVI fused to the Fc domain of human Igs) (from UniProt Q9HCN6 21-267) (Fc fusion) |
| 270 nM | GPVI-His (extracellular domain of human GPVI fused to a poly-His tag) (from UniProt Q9HCN6 21-267) (domain or fragment) |
